Measurements from patent publication US20250250357A1 (NANJING ZAIMING PHARMACEUTICAL, published 2025).
Positions count from the first letter of the chain named.

B1: S009-F2.21.4 (antibody, human IgG1, kappa, V domains shown)
VH: EVQLQQSGPELVKPGASVKIPCKASGYTFTDYNMDWVKQSHGKSLEWIGDINPNNGGSIYNQRFKGKATLTVDKSSSTAYMELRSLTSEDSAVYYCARRAYYSTGYFDVWGTGTTVTVSS
VL: QIVLTQSPALMSASPGEKVTITCSASSSISYMHWFQQKPGTSPKLWIYSTSTLASGVPARFSGSGSGTSYSLTISRMEAEDTATYYCQQRSSYPPTFGGGTKLEIKR
notes: Human-murine chimeric antibody: murine VH/VL on human IgG1 heavy and kappa light constant regions
B2: S009-F2.39.3 (antibody, human IgG1, kappa, V domains shown)
VH: QVQLQQPGTELVKPGASVKLSCKASGYTFTNYWMHWVKQRPGQGLEWIGNINPSSGDSYYNERFMSKAKMTVDKSSSTAYMQLSSLTSEDSAVYYCARSGGLWLAFWGPGTLVTVSA
VL: DIVMTQSPSSLAMSVGQKVTMSCKSSQTLLNSVSQNNYLAWYQQKPGQSPTLLVYFASTRESGVPDRFIGGGSGTDFTLTISSVQAEDLADYFCQQHYRTPYTFGGGTNLEIKR
notes: as for B1
B3: S009-F2.38.12 (antibody, human IgG1, kappa, V domains shown)
VH: QVQLQQPGTELVKPGASVKLSCKASGYTFTSYWMHWVKQRPGQGLEWIGNINPSNGGTNYNEKIKNKATLTVDKSSSTAYMQLSSLTSEDSAVYYCARWNYYGNYPFDYWGQGTTLTVSS
VL: DIVMTQSQKFMSTTVGDRVSITCKASQNVGTAVAWYQQKPGQSPKLLIYSASNRYTGVPDRFTGSGSGTDFTLTISNMQSEDLADYFCQQYSSYPLTFGAGTKLELKR
notes: as for B1
B4: S009-F2.47.1 (antibody, human IgG1, kappa, V domains shown)
VH: QVQLQQPGAELVKPGASVKLSCKASGYTFTSYWMHWVKQRPGQGLEWIGMIHPNSGSTNYNEKFKSKATLTVDKSSSTAYMQLSSLTSEDSAVYYCARPVVPYWYFDVWGTGTTVTVSS
VL: B3 VL with Y91S
notes: as for B1
B5: S009-F2.58.8 (antibody, human IgG1, kappa, V domains shown)
VH: QVQLLQSGAELAKPGASVKLSCKASGYTFTSYWVHWVKQRPGQGLEWIGYINPNSGYTKYNQKFKDKATLTADKSSSTAYMQLSSLTYEDSAVYYCADHYYGSSRDYFDYWGQGTTLTVSS
VL: QIVLTQSPAIMSASPGEKVTMTCSASSSVSYMYWYQQRPGSSPRLLIYDTSNLASGVPVRFSGSGSGTSYSLTISRMEAEDAATYYCQQWNSYPYTFGGGTKLEIKR
notes: as for B1
B6: S009-F2-56.12 (antibody, human IgG1, kappa, V domains shown)
VH: DVQLQESGPGMVKPSQSLSLTCTVTGYSITSGYDWHWIRHFPGNKLEWMGYISYSGSTNYNPSLKSRISITHDTSKNHFFLKLKSVTTEDTATYYCARGTGPDYWGQGTTLTVSS
VL: DIVMTQSQKFMSTSVGDRVSITCKASQNVRTAVAWYQQKPGQSPKALIHLPSNRHTGVPDRFTGSGSGTDFTLTISNVQSEDLADYFCLQHWNYPLTFGGGTKLEIKR
notes: as for B1
B7: S009-F2.23.12 (antibody, human IgG1, kappa, V domains shown)
VH: QVQLQQPGTELVKPGASVKLSCKASGYTFTNYWMHWVKQRPGQGLEWIGNINPSNGGPYYNERFRSKATLTVDKSSSTAYMQLSSLTSEDSAVYYCARPYYGSSYGYFDYWGQGTTLTVSS
VL: DIQMTQSPSSLSASLGGKVTITCKASQDINKYIAWYQHKPGKGPRLLIHYTSELQPGIPSRFSGNGSGRDYSFSISNLEPEDIATYYCLQYANPLRTFGGGTKLEIKR
notes: as for B1

target: T1, human MSLN-R2-his protein (human, UniProt Q13421 391-486); experiment: ELISA on coated antigen, antibody 1 nM
T1 construct: Self-made in HEK293E cells; also called human MSLN-R2 protein; hMSLN-R2-his; not shown: His tag
T1 sequence (Q13421 other isoform, or with tags, fused parts or gaps): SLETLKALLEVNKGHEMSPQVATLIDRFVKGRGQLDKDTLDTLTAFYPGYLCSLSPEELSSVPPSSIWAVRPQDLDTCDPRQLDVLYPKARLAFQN

| OD450 [OD450] | Binder |
| --- | --- |
| 0.05 | B1 |
| 0.05 | B2 |
| 0.05 | B3 |
| 0.05 | B4 |
| 2.04 | B5 |
| 0.06 | B6 |
| 0.05 | B7 |

target: T2, human MSLN-R3-his protein (human, UniProt Q13421 487-598); experiment: ELISA on coated antigen, antibody 1 nM
T2 construct: Self-made in HEK293E cells; also called human MSLN-R3 protein; hMSLN-R3-his; not shown: His tag
T2 sequence (Q13421 495-606): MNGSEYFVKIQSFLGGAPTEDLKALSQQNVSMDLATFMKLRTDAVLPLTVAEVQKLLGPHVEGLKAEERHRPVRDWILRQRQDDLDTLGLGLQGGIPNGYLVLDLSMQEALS

| OD450 [OD450] | Binder |
| --- | --- |
| 0.05 | B1 |
| 0.25 | B2 |
| 0.05 | B3 |
| 0.05 | B4 |
| 0.05 | B5 |
| 0.06 | B6 |
| 0.3 | B7 |

target: T3, human MSLN-R3-3 polypeptide (human); experiment: ELISA on coated antigen, antibody 1 nM
T3 construct: also called human MSLN-R3-3 protein; hMSLN-R3-3
Protocol: (§1) The plate was sealed with a plastic film and incubated at 4° C. overnight. The next day, the plate was washed twice with PBST, and a blocking buffer [PBS+2% (w/w) BSA] was added for blocking at room temperature for 2 h. The blocking buffer was discarded, and a chimeric antibody or negative control antibody serially diluted from 100 nM was added at 50 μL/well. After incubation at 37° C. for 2 h, the plate was washed 3 times with PBST. […] After incubation at 37° C. for 2 h, the plate was washed 5 times with PBST. A TMB substrate was added at 50 μL/well for incubation at room temperature for 5-10 min, and then a stop solution (1.0 N HCl) was added at 50 μL/well.

| OD450 [OD450] | Binder |
| --- | --- |
| 0.05 | B1 |
| 0.05 | B2 |
| 0.05 | B3 |
| 0.05 | B4 |
| 0.06 | B5 |
| 0.06 | B6 |
| 0.05 | B7 |

target: T1, human MSLN-R2-his protein; experiment: ELISA on coated antigen, antibody 10 nM
Protocol: as §1

| OD450 [OD450] | Binder |
| --- | --- |
| 0.05 | B1 |
| 0.05 | B2 |
| 0.05 | B3 |
| 0.05 | B4 |
| 2.43 | B5 |
| 0.07 | B6 |
| 0.05 | B7 |

target: T2, human MSLN-R3-his protein; experiment: ELISA on coated antigen, antibody 10 nM
Protocol: as §1

| OD450 [OD450] | Binder |
| --- | --- |
| 0.05 | B1 |
| 0.98 | B2 |
| 0.05 | B3 |
| 0.05 | B4 |
| 0.05 | B5 |
| 0.07 | B6 |
| 1.4 | B7 |

target: T3, human MSLN-R3-3 polypeptide; experiment: ELISA on coated antigen, antibody 10 nM
Protocol: as §1

| OD450 [OD450] | Binder |
| --- | --- |
| 0.05 | B1 |
| 0.05 | B2 |
| 0.05 | B3 |
| 0.06 | B4 |
| 0.06 | B5 |
| 0.07 | B6 |
| 0.05 | B7 |

target: T1, human MSLN-R2-his protein; experiment: ELISA on coated antigen, antibody 0.1 nM
Protocol: as §1

| OD450 [OD450] | Binder |
| --- | --- |
| 0.05 | B1 |
| 0.05 | B2 |
| 0.05 | B3 |
| 0.05 | B4 |
| 0.63 | B5 |
| 0.06 | B6 |
| 0.05 | B7 |

target: T1, human MSLN-R2-his protein; experiment: ELISA on coated antigen, antibody 100 nM
Protocol: as §1

| OD450 [OD450] | Binder |
| --- | --- |
| 0.06 | B1 |
| 0.06 | B2 |
| 0.06 | B3 |
| 0.06 | B4 |
| 2.63 | B5 |
| 0.17 | B6 |
| 0.06 | B7 |

target: T2, human MSLN-R3-his protein; experiment: ELISA on coated antigen, antibody 0.1 nM
Protocol: as §1

| OD450 [OD450] | Binder |
| --- | --- |
| 0.05 | B1 |
| 0.07 | B2 |
| 0.05 | B3 |
| 0.05 | B4 |
| 0.05 | B5 |
| 0.05 | B6 |
| 0.09 | B7 |

target: T2, human MSLN-R3-his protein; experiment: ELISA on coated antigen, antibody 100 nM
Protocol: as §1

| OD450 [OD450] | Binder |
| --- | --- |
| 0.06 | B1 |
| 1.84 | B2 |
| 0.06 | B3 |
| 0.06 | B4 |
| 0.07 | B5 |
| 0.13 | B6 |
| 2.08 | B7 |

target: T3, human MSLN-R3-3 polypeptide; experiment: ELISA on coated antigen, antibody 0.1 nM
Protocol: as §1

| OD450 [OD450] | Binder |
| --- | --- |
| 0.05 | B1 |
| 0.05 | B2 |
| 0.05 | B3 |
| 0.06 | B4 |
| 0.06 | B5 |
| 0.06 | B6 |
| 0.05 | B7 |

target: T3, human MSLN-R3-3 polypeptide; experiment: ELISA on coated antigen, antibody 100 nM
Protocol: as §1

| OD450 [OD450] | Binder |
| --- | --- |
| 0.05 | B1 |
| 0.05 | B2 |
| 0.06 | B3 |
| 0.06 | B4 |
| 0.07 | B5 |
| 0.14 | B6 |
| 0.06 | B7 |

target: T1, human MSLN-R2-his protein; experiment: ELISA on coated antigen, antibody 0.01 nM
Protocol: as §1

| OD450 [OD450] | Binder |
| --- | --- |
| 0.05 | B1 |
| 0.05 | B2 |
| 0.05 | B3 |
| 0.05 | B4 |
| 0.12 | B5 |
| 0.06 | B6 |
| 0.05 | B7 |

target: T2, human MSLN-R3-his protein; experiment: ELISA on coated antigen, antibody 0.01 nM
Protocol: as §1

| OD450 [OD450] | Binder |
| --- | --- |
| 0.05 | B1 |
| 0.05 | B2 |
| 0.04 | B3 |
| 0.05 | B4 |
| 0.05 | B5 |
| 0.05 | B6 |
| 0.05 | B7 |

target: T3, human MSLN-R3-3 polypeptide; experiment: ELISA on coated antigen, antibody 0.01 nM
Protocol: as §1

| OD450 [OD450] | Binder |
| --- | --- |
| 0.05 | B1 |
| 0.05 | B2 |
| 0.05 | B3 |
| 0.05 | B4 |
| 0.06 | B5 |
| 0.05 | B6 |
| 0.05 | B7 |

target: T1, human MSLN-R2-his protein; experiment: ELISA on coated antigen, antibody 0.001 nM
Protocol: as §1

| OD450 [OD450] | Binder |
| --- | --- |
| 0.05 | B1 |
| 0.05 | B2 |
| 0.05 | B3 |
| 0.05 | B4 |
| 0.06 | B5 |
| 0.06 | B6 |
| 0.05 | B7 |

target: T2, human MSLN-R3-his protein; experiment: ELISA on coated antigen, antibody 0.001 nM
Protocol: as §1

| OD450 [OD450] | Binder |
| --- | --- |
| 0.05 | B1 |
| 0.05 | B2 |
| 0.05 | B3 |
| 0.05 | B4 |
| 0.05 | B5 |
| 0.05 | B6 |
| 0.05 | B7 |

target: T3, human MSLN-R3-3 polypeptide; experiment: ELISA on coated antigen, antibody 0.001 nM
Protocol: as §1

| OD450 [OD450] | Binder |
| --- | --- |
| 0.05 | B1 |
| 0.05 | B2 |
| 0.05 | B3 |
| 0.06 | B4 |
| 0.06 | B5 |
| 0.06 | B6 |
| 0.05 | B7 |

target: T1, human MSLN-R2-his protein; experiment: ELISA on coated antigen, antibody 0.0001 nM
Protocol: as §1

| OD450 [OD450] | Binder |
| --- | --- |
| 0.05 | B1 |
| 0.05 | B2 |
| 0.05 | B3 |
| 0.05 | B4 |
| 0.05 | B5 |
| 0.06 | B6 |
| 0.05 | B7 |

target: T2, human MSLN-R3-his protein; experiment: ELISA on coated antigen, antibody 0.0001 nM
Protocol: as §1

| OD450 [OD450] | Binder |
| --- | --- |
| 0.05 | B1 |
| 0.05 | B2 |
| 0.05 | B3 |
| 0.05 | B4 |
| 0.05 | B5 |
| 0.05 | B6 |
| 0.05 | B7 |

target: T3, human MSLN-R3-3 polypeptide; experiment: ELISA on coated antigen, antibody 0.0001 nM
Protocol: as §1

| OD450 [OD450] | Binder |
| --- | --- |
| 0.05 | B1 |
| 0.05 | B2 |
| 0.05 | B3 |
| 0.05 | B4 |
| 0.05 | B5 |
| 0.06 | B6 |
| 0.05 | B7 |

target: T1, human MSLN-R2-his protein; experiment: ELISA on coated antigen, no antibody (column none)
Protocol: as §1

| OD450 [OD450] | Binder |
| --- | --- |
| 0.06 | B1 |
| 0.06 | B2 |
| 0.06 | B3 |
| 0.06 | B4 |
| 0.06 | B5 |
| 0.07 | B6 |
| 0.06 | B7 |

target: T2, human MSLN-R3-his protein; experiment: ELISA on coated antigen, no antibody (column none)
Protocol: as §1

| OD450 [OD450] | Binder |
| --- | --- |
| 0.06 | B1 |
| 0.05 | B2 |
| 0.05 | B3 |
| 0.05 | B4 |
| 0.05 | B5 |
| 0.06 | B6 |
| 0.06 | B7 |

target: T3, human MSLN-R3-3 polypeptide; experiment: ELISA on coated antigen, no antibody (column none)
Protocol: as §1

| OD450 [OD450] | Binder |
| --- | --- |
| 0.05 | B1 |
| 0.05 | B2 |
| 0.05 | B3 |
| 0.06 | B4 |
| 0.06 | B5 |
| 0.07 | B6 |
| 0.05 | B7 |
